Measurements: US20260250318A1, “COMPOSITIONS AND METHODS FOR CROSSING THE BLOOD BRAIN BARRIER” (VOYAGER THERAPEUTICS, INC., priority 2022, published 2026)

System: mouse cells derived from the midbrain area
Test: scRNA-Seq and IHC of midbrain cells transduced by TTM-002
Assay type: in vivo, SCID CB17 mice
Conditions: for % GFP Cells/Cluster: AAV_TTM-002.GFP particles, GFP sorted midbrain cells; for % GFP Cells/Cluster / % Payload Cells/Cluster: 28 days; for % Payload Cells/Cluster: AAV_TTM-002.payload particles, midbrain scRNA-Seq
Experimental: AAV particles were generated with the TTM-002 capsid variant encapsulating a GFP transgene (AAV_TTM-002.GFP) or a payload driven by a heterologous CBA constitutive promoter (AAV_TTM-002.Payload).
Two tandem single cell RNA sequencing runs (scRNA-Seq) of mouse cells derived from the midbrain area were performed. In the first run, cells were pooled from two mice at day 28 post treatment with AAV_TTM-002.Payload particles. In the second run we treated with AAV_TTM-002.GFP particles, in the same manner but without xenografts. Orthotopic xenografts of MDA-MB-361-Luc #1 high passage cells grown as tumorspheres (in tumorsphere media; Sigma #C-28070) were injected (250,000 cells/2 μL/mouse) intracranially into 2-month old female SCID CB17 (Mutation: Icr-Prkdcscid/IcrIcoCrl) congenic immunodeficient mice (Charles River Laboratories). The injections were 2.5 mm (lateral),-1 mm (posterior) with respect to bregma, lowered-3 mm ventral and raised +0.5 mm dorsal to a final-2.5 mm ventral position. Two days later, dilutions of the AAV_TTM-002.Payload particles (run 1), or in the case without xenografts, dilutions of AAV_TTM-002.GFP particles (run 2) were prepared. IV injections of 100 μL (2.5e11 VG/animal) of the AAV_TTM-002.payload particles or AAV_TTM-002.GFP particles were administered through the tail veins of mice (n=5 mice per groups). At 7 days post-injection, mice from run 1 were imaged in an AmiHTX (Spectral Imager) for bioluminescence of the human tumor cells due to expression of luciferase in response to intraperitoneal luciferin injections.
At 28 days post-injection with the AAV_TTM-002.payload particles or AAV_TTM-002.GFP particles, two mice from each run were necropsied, brain samples were isolated, and the midbrain was dissected and isolated. The midbrain samples were then exposed to a cold protease inhibitor (Creative Biomart #NATE-0633) and were dissociated at 6 degrees centigrade. For the samples collected from the mice of run 1 (AAV_TTM-002.Payload particles), myelin depletion was performed (Miltenyi, #130-096-731), cells were filtered through a […] mesh to filter out neurons) and loaded on a 10X chromium G chip. scRNA-Seq was performed (10X Genomics) and samples were sequenced on a NextGen500 Sequencing machine (Illumina). For the samples collected from run 2 (AAV_TTM-002.GFP particles and no xenografts), the cells were not myelin depleted or filtered through […] mesh to include neurons. The cells isolated after run 2 were FACS sorted for GFP+/7AAD− (live GFP+ cells). The resultant cells were loaded on a 10× chromium G chip and the scRNA-Seq was run and processed (10× Genomics).
For run 1, the scRNA-Seq data was filtered to include cells with only greater than 1000 genes per cell and less than 5000, and less than 20 percent mitochondrial gene expression. For run 2, the scRNA-Seq data was filtered to include cells with only greater than 200 genes per cell and less than 5000, and less than 20 percent mitochondrial gene expression. The data were normalized, scaled, and integrated into one combined dataset. Clusters were generated with a resolution of 0.3 and each cluster identity was determined using a panel of cell type specific genes (e.g., as described in Brown et al., 2021. “Deep Parallel Characterization of AAV Tropism and AAV-Mediated Transcriptional Changes via Single-Cell RNA Sequencing”. Front. Immunol. 12:730825; the contents of which are hereby incorporated by reference in its entirety). The percentage of GFP sorted cells per cluster was calculated as was the percentage of payload expressing genes per cluster as parallel measures of TTM-002 transduction.

[1] = cluster Vascular smooth muscle cells (VSC)

B1: TTM-002: AAV9 capsid variant comprising HDSPHK (SEQ ID NO: 2) in loop IV (protein)
chain 1: MAADGYLPDWLEDNLSEGIREWWALKPGAPQPKANQQHQDNARGLVLPGYKYLGPGNGLDKGEPVNAADAAALEHDKAYDQQLKAGDNPYLKYNHADAEFQERLKEDTSFGGNLGRAVFQAKKRLLEPLGLVEEAAKTAPGKKRPVEQSPQEPDSSAGIGKSGAQPAKKRLNFGQTGDTESVPDPQPIGEPPAAPSGVGSLTMASGGGAPVADNNEGADGVGSSSGNWHCDSQWLGDRVITTSTRTWALPTYNNHLYKQISNSTSGGSSNDNAYFGYSTPWGYFDFNRFHCHFSPRDWQRLINNNWGFRPKRLNFKLFNIQVKEVTDNNGVKTIANNLTSTVQVFTDSDYQLPYVLGSAHEGCLPPFPADVFMIPQYGYLTLNDGSQAVGRSSFYCLEYFPSQMLRTGNNFQFSYEFENVPFHSSYAHSQSLDRLMNPLIDQYLYYLSKTINGHDSPHKSGQNQQTLKFSVAGPSNMAVQGRNYIPGPSYRQQRVSTTVTQNNNSEFAWPGASSWALNGRNSLMNPGPAMASHKEGEDRFFPLSGSLIFGKQGTGRDNVDADKVMITNEEEIKTTNPVATESYGQVATNHQSAQAQAQTGWVQNQGILPGMVWQDRDVYLQGPIWAKIPHTDGNFHPSPLMGGFGMKHPPPQILIKNTPVPADPPTAFNKDKLNSFITQYSTGQVSVEIEWELQKENSKRWNPEIQYTSNYYKSNNVEFAVNTEGVYSEPRPIGTRYLTRNL
chain 2: GHDSPHKSGQNQQT
- IHC co-staining of GFP with cell markers (brain samples, AAV_TTM-002.GFP): GFP co-localized with some but not all Olig2+ cells
- % GFP Cells/Cluster (cluster Astrocyte): 2.37%
- % Payload Cells/Cluster (cluster Astrocyte): 4.50%
- % GFP Cells/Cluster (cluster Committed Oligos-2): 0.00%
- % Payload Cells/Cluster (cluster Committed Oligos-2): 0.00%
- % GFP Cells/Cluster (cluster Committed Oligos): 0.00%
- % Payload Cells/Cluster (cluster Committed Oligos): 1.90%
- % GFP Cells/Cluster (cluster Endothelial-1): 3.45%
- % Payload Cells/Cluster (cluster Endothelial-1): 3.09%
- % GFP Cells/Cluster (cluster Endothelial-2): 6.58%
- % Payload Cells/Cluster (cluster Endothelial-2): 6.58%
- % GFP Cells/Cluster (cluster Macrophages): 0.00%
- % Payload Cells/Cluster (cluster Macrophages): 0.00%
- % GFP Cells/Cluster (cluster Mature Oligos): 0.00%
- % Payload Cells/Cluster (cluster Mature Oligos): 3.85%
- % GFP Cells/Cluster (cluster Microglia): 0.00%
- % Payload Cells/Cluster (cluster Microglia): 0.40%
- % GFP Cells/Cluster (cluster Oligodendrocytes): 0.00%
- % Payload Cells/Cluster (cluster Oligodendrocytes): 0.00%
- % GFP Cells/Cluster (cluster Pericytes): 0.77%
- % Payload Cells/Cluster (cluster Pericytes): 4.23%
- % GFP Cells/Cluster (cluster Vascular and leptomeningeal Cells (VLM)): 2.38%
- % Payload Cells/Cluster (cluster Vascular and leptomeningeal cells (VLM)): 0.00%
- % GFP Cells/Cluster [1]: 1.03%
- % Payload Cells/Cluster [1]: 1.72%
- proportion of payload positive cells per cell type (scRNA-Seq, AAV_TTM-002.Payload, day 28): endothelial cells had the highest proportion of payload positive cells
- proportion of GFP positive cells per cell type (scRNA-Seq, GFP+ sorted cells, AAV_TTM-002.GFP, day 28): endothelial cells had the highest proportion of GFP positive cells
